Target: the molecule itself
Assay: cross-linking

B1: σ1 M332C, S370P, Q371E, S403C of the HeadΔSA mutant virus, on purified virions (natural protein, UniProt P04506 1-470, looked up)
chain: MDASLITEIRKIVLQLSVSSNGSQSKEIEEIKKQVQVNVDDIRAANIKLDGLGRQIADISNSISTIESRLGEMDNRLVGISSQVTQLSNSVSQNTQSISSLGDRINAVEPRVDSLDTVTSNLTGRTSTLEADVGSLRTELAALTTRVTTEVTRLDGLINSGQNSIGELSTRLSNVETSMVTTAGRGLQKNGNTLNVIVGNGMWFNSSNQLQLDLSGQSKGVGFVGTGMVVKIDTNYFAYNSNGEITLVSQINELPSRVSTLESAKIDSVLPPLTVREASGVRTLSFGYDTSDFTIINSVLSLRSRLTLPTYRYPLELDTANNRVQVADRFGCRTGTWTGQLQYQHPQLSWRANVTLNLMKVDDWLVLSFPEMTTNSIMADGKFVINFVSGLSSGWQTGDTEPCSTIDPLSTTFAAVQFLNNGQRIDAFRIMGVSEWTDGELEIKNYGGTYTGHTQVYWAPWTIMYPCNVR
  binding result: binds

— paper doi:10.1101/2020.06.09.143594 (bioRxiv, 2020)
